This note sets out measurements from patent US20250170267A1, “ANTIBODY-DRUG CONJUGATE PRECURSOR AND INTERMEDIATE FOR SYNTHESIS THEREOF” (UBE Corporation, priority 2022, published 2025).

One data set has as its target T1, human topoisomerase I (Homo sapiens, UniProt P11387).
T1 construct: purchased Sigma T9069
T1 sequence (P11387 1-765): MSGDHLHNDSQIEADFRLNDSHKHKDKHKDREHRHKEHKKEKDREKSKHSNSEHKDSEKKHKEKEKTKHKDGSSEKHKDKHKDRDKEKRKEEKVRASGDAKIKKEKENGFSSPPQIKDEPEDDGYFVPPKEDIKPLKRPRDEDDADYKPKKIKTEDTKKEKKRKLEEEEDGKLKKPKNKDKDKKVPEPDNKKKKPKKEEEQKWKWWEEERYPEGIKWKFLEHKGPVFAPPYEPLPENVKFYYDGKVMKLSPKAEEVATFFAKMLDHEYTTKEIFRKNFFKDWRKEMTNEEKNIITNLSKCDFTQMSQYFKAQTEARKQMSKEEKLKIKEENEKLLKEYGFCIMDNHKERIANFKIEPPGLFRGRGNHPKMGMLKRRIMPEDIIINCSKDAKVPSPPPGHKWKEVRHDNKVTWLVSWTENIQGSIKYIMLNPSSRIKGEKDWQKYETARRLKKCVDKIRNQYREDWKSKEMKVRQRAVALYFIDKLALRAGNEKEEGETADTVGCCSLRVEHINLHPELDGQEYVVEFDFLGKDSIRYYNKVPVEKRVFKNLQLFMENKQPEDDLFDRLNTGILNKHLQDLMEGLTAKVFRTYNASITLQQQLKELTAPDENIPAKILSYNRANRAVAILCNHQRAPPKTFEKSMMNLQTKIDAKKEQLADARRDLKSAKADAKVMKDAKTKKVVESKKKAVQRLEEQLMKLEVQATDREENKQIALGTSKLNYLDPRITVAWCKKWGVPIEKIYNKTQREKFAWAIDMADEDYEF
The data set is described as follows: Topoisomerase I activity inhibition test. The format is biochemical. Conditions: supercoiled plasmid DNA, 37° C., 60 minutes. On the procedure:
For measuring topoisomerase I activity inhibitory actions, Human DNA Topoisomerase I Assay Kit (manufactured by ProFoldin, HRA100K) was used. A human topoisomerase I (manufactured by Sigma, T9069) was added to a Tris-HCl buffer containing KCl, DTT, MgCl2, EDTA, and BSA to prepare a reaction solution. The reaction solution (35.2 μL) and a test compound solution (4.4 μL) prepared by an aqueous solution containing 10% DMSO were mixed in a 1.5 mL microtube, and the resulting mixture was reacted at 37° C. for 10 minutes. Subsequently, a supercoiled plasmid DNA (4.4 μL) was added thereto, and the resulting mixture was reacted at 37° C. for 60 minutes. After the reaction, the solution was added to a 96 well plate (manufactured by Corning Inc., 3904) at 40 μL/well, and a Dye H19 solution (250 μL) diluted 10 times with the buffer included with the kit was added thereto. A microplate reader (Infinite F500, manufactured by TECAN) was used to measure the fluorescence intensity (excitation wavelength: 485 nm, detection wavelength: 535 nm) of each well.
The topoisomerase I activity inhibition rate (%) was calculated by the following equation.

Data set [1] is described as follows: Retention time in HPLC (index of hydrophilicity). Format: physicochemical. Conditions: BEH C18, 0.1% formic acid/acetonitrile gradient, 40° C. On the procedure: As an index of hydrophilicity of the Examples, the retention time (RT) in HPLC analysis was measured, and compared.
Device: LCMS2020 system Shimadzu Corporation
Column: Acquity UPLC (registered trademark) BEH C18 (2.1×50 mm, 1.7 μm)_Waters
Eluent: Solution A: 0.1% aqueous solution of formic acid, Solution B: 0.1% solution of formic acid in acetonitrile

The test system of the next data set is human liver lysosome. The data set is described as follows: Metabolism test using human liver lysosomal fraction. Format: in vitro ADME. Conditions: 37° C., 24 hours, released drug, LC-MS/MS. On the procedure: To a reaction composition solution (X10 Catabolic Buffer (manufactured by SEKISUI-Xenotech, LLC., K5200))(60 μL) in which human liver lysosome (manufactured by SEKISUI-Xenotech, LLC., Cat No. H610.L 2.5 mg/mL)(corresponding to 0.125 mg of protein) was suspended and distilled water (manufactured by FUJIFILM Wako Pure Chemical Corporation, for HPLC)(10 μL) was added 1.2 μM test compound (antibody-drug conjugate produced in ADC Production examples)(25 μL) dissolved in PBS to prepare a reaction solution. After the reaction solution was incubated at 37° C. for 24 hours, “an antitumor drug molecule or an analog thereof, or a derivative thereof” released from the antibody-drug conjugate into the reaction solution was quantified by LC-MS/MS (high performance liquid chromatography/mass spectrometer system) under the following conditions. LC-MS/MS analysis conditions
(§1) LC: LC20 or LC30 HPLC system manufactured by Shimadzu Corporation
(§2) Column: Phenomenex Kinetex C18 (50×2.1 mm, 2.6 μm)
(§3) Column temperature: 40° C.
(§4) Mobile phase A: 0.1% aqueous solution of formic acid, Mobile phase B: 0.1% solution of formic acid in a mixture of 50% acetonitrile/methanol
(§5) Mode: Positive or Negative
(§6) The release rate (%) of drug was calculated by the following equation.

For another data set, the target named is T2, human liver Cathepsin B (Homo sapiens, UniProt P07858).
T2 construct: human liver Cathepsin B (manufactured by Sigma-Aldrich Co. LLC, Cat No. C8571 25 μg/vial); purchased Sigma-Aldrich Co. LLC C8571; host or cells: human liver
The data set is described as follows: Metabolism test using human liver Cathepsin B. The format is in vitro ADME. Conditions: 37° C., 24 hours, released drug, LC-MS/MS. On the procedure: To human liver Cathepsin B (manufactured by Sigma-Aldrich Co. LLC, Cat No. C8571 25 μg/vial)(corresponding to 400 Unit/mL)(5 μL), X10 Catabolic Buffer (manufactured by SEKISUI-Xenotech, LLC., K5200)(10 μL), 2.5 mM Bovine Serum Albumin (manufactured by FUJIFILM Wako Pure Chemical Corporation, Cat No. 012-15093)(5 μL), and distilled water (manufactured by FUJIFILM Wako Pure Chemical Corporation, for HPLC)(55 μL) was added 1.2 μM test compound (antibody-drug conjugate prepared in ADC Production examples)(25 μL) dissolved in PBS to prepare a reaction solution. After the reaction solution was incubated at 37° C. for 24 hours, “an antitumor drug molecule or an analog thereof, or a derivative thereof” released from the antibody-drug conjugate into the reaction solution was quantified by LC-MS/MS (high performance liquid chromatography/mass spectrometer system) under the following conditions. LC-MS/MS analysis conditions
as §1, §2, §3, §4, §5, §6

Data set [2] in a line: Pharmacokinetic test (serum trastuzumab residual rate). Format: in vivo. Conditions: female BALB/c mouse, intravenous; 3 days vs 5 minutes after administration. The text has this:
After a prescribed time period, the blood was collected from the jugular vein or abdominal vein, and centrifuged to prepare a serum. The resulting serum was cryopreserved until the measurement.

The structures appear in SMILES notation. Numbered stars: 1 amine (or outer) side, 2 acyl side, 3 side chain; on linkers, the order of the positions; unused ones are H or OH. Square brackets hold non-standard residues; d marks the D form. Peptide text beside a SMILES is read from it. * marks the point of attachment. Exatecan = CC[C@@]1(O)C(=O)OCc2c1cc1n(c2=O)Cc2c-1nc1cc(F)c(C)c3c1c2[C@@H](N*)CC3; βAla(2S-maleimido) = O=C1C=CC(=O)N1[C@@H](CN[*:1])C(=O)[*:2]; Dolaproine = CO[C@@H]([C@@H]1CCCN1)[C@@H](C)C(=O)O; Hexanoyl(6-maleimido) = O=C1C=CC(=O)N1CCCCCC(=O)*; Propanoyl(3-maleimido) = O=C1C=CC(=O)N1CCC(=O)*; Dil = CC[C@H](C)[C@H](NC)[C@@H](CC(=O)O)OC; X3 = C[C@@H](N*)[C@@H](OP(=O)(O)O)c1ccccc1; PABC = O=C(OCc1ccc(N[*:1])cc1)[*:2]; NHCH2OCH2CO = O=C(COCN[*:1])[*:2]; X1 = C[C@@H](N*)[C@@H](O)c1ccccc1; hSer(lactone) = O=C1OCC[C@@H]1N*; Cit = NC(=O)NCCC[C@H](N)C(=O)O; PEG4 = NCCOCCOCCOCCOCCC(=O)O; NMeV = CN[C@H](C(=O)O)C(C)C; X2 = O=C1CC[C@@H](C(=O)*)O1

For `CC[C@@]1(O)C(=O)OCc2c1cc1n(c2=O)Cc2c-1nc1cc(F)c(C)c3c1c2[C@@H](NC(C)=O)CC3` [Example U-001], the concentration for half-maximal inhibition (IC50) on human topoisomerase I is ≤ 15 µM.
For `CC[C@H](C)[C@@H]([C@@H](CC(=O)N1CCC[C@H]1[C@H](OC)[C@@H](C)C(=O)N[C@H](C)[C@@H](OP(=O)(O)O)c1ccccc1)OC)N(C)C(=O)[C@@H](NC(=O)[C@H](C(C)C)N(C)C(=O)OCc1ccc(NC(=O)[C@H](CCCNC(N)=O)NC(=O)[C@@H](NC(=O)[C@H](CC(=O)N[C@H]2CCOC2=O)NC(=O)CCOCCOCCOCCOCCNC(=O)CCN2C(=O)C=CC2=O)C(C)C)cc1)C(C)C` [Example 2] ({Propanoyl(3-maleimido)-PEG4}-D(hSer(lactone))V[Cit][PABC][NMeV]V[Dil][Dolaproine]-X3), in data set [1] (Table 5 (MMAE-type precursors)), the “Retention time in HPLC measurement” value was determined as 0.96 min.
On to `C=C1C[C@@H]2CC[C@@]34C[C@H]5O[C@H]6[C@@H](O3)[C@H]3O[C@H](CC[C@@H]3O[C@H]6[C@H]5O4)CC(=O)C[C@@H]3[C@@H](OC)[C@@H](C[C@@H](CNC(=O)OCc4ccc(NC(=O)[C@H](CCCNC(N)=O)NC(=O)[C@@H](NC(=O)[C@H](CC(=O)N[C@H]5CCOC5=O)NC(=O)CCOCCOCCOCCOCCNC(=O)[C@H](CNC(=O)CCP(=O)(O)O)N5C(=O)C=CC5=O)C(C)C)cc4)OP(=O)(O)O)O[C@H]3C[C@H]3O[C@@H](CC[C@@H]1O2)C[C@@H](C)C3=C` [Example 26], for which the “Retention time in HPLC measurement” value in data set [1] (Table 6 (eribulin precursors)) is reported as 0.91 min.
As to `C=C1C[C@@H]2CC[C@@]34C[C@H]5O[C@H]6[C@@H](O3)[C@H]3O[C@H](CC[C@@H]3O[C@H]6[C@H]5O4)CC(=O)C[C@@H]3[C@@H](OC)[C@@H](C[C@H](O)CNC(=O)OCc4ccc(NC(=O)[C@H](CCCNC(N)=O)NC(=O)[C@@H](NC(=O)[C@H](CC(=O)N[C@H]5CCOC5=O)NC(=O)CCOCCOCCOP(=O)(O)OCCNC(=O)[C@H](CNC(=O)CCP(=O)(O)O)N5C(=O)C=CC5=O)C(C)C)cc4)O[C@H]3C[C@H]3O[C@@H](CC[C@@H]1O2)C[C@@H](C)C3=C` [Example 17], the results for the “Release rate (%) of drug from ADC” value with human liver lysosome and with human liver Cathepsin B were 56% and 58%, respectively. Also, the “Retention time in HPLC measurement” value in data set [1] (Table 6 (eribulin precursors)) is given as 1.04 min.
`CC[C@@]1(O)C(=O)OCc2c1cc1n(c2=O)Cc2c-1nc1cc(F)c(C)c3c1c2[C@@H](NC(=O)Cc1ccc(N)cc1)CC3` [Example U-007]: the concentration for half-maximal inhibition (IC50) on human topoisomerase I was ≤ 15 µM.
For the molecule `CC[C@H](C)[C@@H]([C@@H](CC(=O)N1CCC[C@H]1[C@H](OC)[C@@H](C)C(=O)N[C@H](C)[C@@H](O)c1ccccc1)OC)N(C)C(=O)[C@@H](NC(=O)[C@H](C(C)C)N(C)C(=O)OCc1ccc(NC(=O)[C@H](CCCNC(N)=O)NC(=O)[C@@H](NC(=O)[C@H](CC(=O)N[C@H]2CCOC2=O)NC(=O)CCOCCOCCOCCOCCNC(=O)[C@H](CNC(=O)[C@@H]2CCC(=O)O2)N2C(=O)C=CC2=O)C(C)C)cc1)C(C)C` [Example 7] (X2-[βAla(2S-maleimido)][PEG4]D(hSer(lactone))V[Cit][PABC][NMeV]V[Dil][Dolaproine]-X1), the “Release rate (%) of drug from ADC” value in the data set with human liver lysosome worked out at 86%; with human liver Cathepsin B it was 65%.
Take `CC[C@@]1(O)C(=O)OCc2c1cc1n(c2=O)Cc2c-1nc1cc(F)c(C)c3c1c2[C@@H](NC(=O)COCNC(=O)CNC(=O)[C@H](Cc1ccccc1)NC(=O)CNC(=O)CNC(=O)[C@H](CC(=O)N[C@H]1CCOC1=O)NC(=O)CCCCCN1C(=O)C=CC1=O)CC3` [Example 13] ({Hexanoyl(6-maleimido)}-D(hSer(lactone))GGFG[NHCH2OCH2CO]-Exatecan): the “Release rate (%) of drug from ADC” value worked out at 76% in the data set on human liver lysosome and 24% in the data set with human liver Cathepsin B. Besides, the “Serum trastuzumab residual rate after 3 days from administration (%)” value in data set [2] is reported as 25%.
